In US20140356358A1 (Amgen, published 2014):

Key:
[1] = molecular target: T1, human neonatal Fc receptor (hFcRn) (human, UniProt P55899 24-290; P61769 21-119); test: SPR competition pH 5.5
T1 construct: Biotinylated in the ELISA, Octet and yeast assays; also called human FcRn; huFcRn
Protocol: (§1) Binding of variant Fc-fragments to human and cynomolgus monkey FcRn was tested using a BIAcore® T100 analysis system (GE Healthcare Bio-Sciences AB Private Limited Liability Company, Uppsala, Sweden) at both pH 5.5 and pH 7.4. The test consisted of incubating various concentrations of the variant Fc-fragments or control Fc-fragments with a fixed amount of human or cynomolgus monkey FcRn under binding conditions and subsequently measuring the amount of free, unbound FcRn in these mixtures by binding to a surface (in a flow cell of a CM5 (Biacore) chip) on which an Fc-fragment was immobilized. […] Thus, the amount of unbound FcRn in the mixture was quantitatively ascertained by surface plasmon resonance through use of the BIAcore® T100 analysis system. […] Initially, a group of 23 variant-Fc-fragments (Fc-5-1 being considered a control) identified in the experiments described above were tested for binding to human FcRn.
(§2) To obtain a reasonable signal for the different molecules and conditions tested, different assay conditions were used. For assays at pH 5.5, 10 nM of human or cynomolgus monkey FcRn was mixed with serial dilutions of the variant and control Fc-fragments being tested (which ranged from 0.1˜2,000 nM) and incubated for 1 hour at room temperature in 10 mM sodium acetate, pH 5.5, 150 mM NaCl, 0.005% P20, 0.1 mg/mL BSA. As positive controls, […] human and cynomolgus monkey FcRn were each incubated in the same solution, for the same time, and at the same temperature described immediately above, but without an added Fc-fragment.

[2] = molecular target: T1, human neonatal Fc receptor (hFcRn); test: phage ELISA pH 6;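 further: higher score means stronger binding and above about 3 to 5 exceeds background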
[3] = molecular target: T1, human neonatal Fc receptor (hFcRn); test: phage ELISA pH 7.4;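 further: higher score means stronger binding and above about 3 to 5 exceeds background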
cynomolgus monkey FcRn = molecular target: T2, cynomolgus monkey FcRn (cynomolgus monkey, UniProt Q8SPV9 24-297; Q8SPW0 21-119, limits assumed); test: SPR competition pH 5.5
T2 construct: also called Cynomolgus FcRn
Protocol: as §1, §2

T1 sequence (P55899 24-290 limits assumed, chain 1 of 2): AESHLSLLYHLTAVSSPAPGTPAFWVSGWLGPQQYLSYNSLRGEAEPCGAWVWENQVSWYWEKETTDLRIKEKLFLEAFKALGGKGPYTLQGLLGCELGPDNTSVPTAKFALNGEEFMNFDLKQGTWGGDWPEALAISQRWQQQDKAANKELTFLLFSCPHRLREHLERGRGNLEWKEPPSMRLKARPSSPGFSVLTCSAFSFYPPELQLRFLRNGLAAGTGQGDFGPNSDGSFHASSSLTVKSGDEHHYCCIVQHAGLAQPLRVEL
T1 sequence (P61769 21-119 limits assumed, chain 2 of 2): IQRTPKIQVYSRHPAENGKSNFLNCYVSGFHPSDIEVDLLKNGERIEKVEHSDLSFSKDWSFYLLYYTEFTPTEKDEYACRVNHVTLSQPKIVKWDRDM
T2 sequence (Q8SPV9 24-297 limits assumed, chain 1 of 2): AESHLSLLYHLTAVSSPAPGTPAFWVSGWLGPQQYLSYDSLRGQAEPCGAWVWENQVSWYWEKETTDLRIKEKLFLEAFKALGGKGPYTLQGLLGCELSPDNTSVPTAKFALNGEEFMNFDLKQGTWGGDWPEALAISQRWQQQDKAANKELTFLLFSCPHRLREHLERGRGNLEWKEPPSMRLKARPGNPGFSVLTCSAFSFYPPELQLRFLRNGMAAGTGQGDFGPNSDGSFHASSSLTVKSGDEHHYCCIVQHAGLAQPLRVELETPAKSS
T2 sequence (Q8SPW0 21-119 limits assumed, chain 2 of 2): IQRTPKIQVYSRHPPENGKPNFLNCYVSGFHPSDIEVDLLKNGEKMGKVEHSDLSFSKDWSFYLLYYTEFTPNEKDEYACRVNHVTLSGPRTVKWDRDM

B1: variant Fc-fragment Fc-5-73 (other)
chain: EPKSCDKTHTCPPCPAPELLGGPSVFLFPPKPKDTLMISRTPEVTCVVVDVSHEDPEVKFNWYVDGVEVHNAKTKPREEQYNSTYRVVSVLTVLHQDWLNGKEYKCKVSNKALPAPIEKTISKAKGQPREPQVYTLPPSRDELTKNQVSLTCLVKGFYPSDIAVEWESNGGCAQQWHHEYCGGGQPENNYKTTPPVLDSDGSFFLYSKLTVDKSRWQQGNVFSCSVMHEALHNHYTQKSLSLSPGK
notes: soluble elsewhere
EC50 [1]: 190 nM | ELISA score [2]: 54.5 | ELISA score [3]: 0.3

B2: variant Fc-fragment Fc-5-57 (other)
chain: EPKSCDKTHTCPPCPAPELLGGPSVFLFPPKPKDTLMISRTPEVTCVVVDVSHEDPEVKFNWYVDGVEVHNAKTKPREEQYNSTYRVVSVLTVLHQDWLNGKEYKCKVSNKALPAPIEKTISKAKGQPREPQVYTLPPSRDELTKNQVSLTCLVKGFYPSDIAVEWESNGGCGKHWHQCGGGQPENNYKTTPPVLDSDGSFFLYSKLTVDKSRWQQGNVFSCSVMHEALHNHYTQKSLSLSPGK
notes: soluble elsewhere
EC50 [1]: 180 nM | ELISA score [2]: 57.8 | ELISA score [3]: 0.3

B3: variant Fc-fragment Fc-5-110 (other)
chain: EPKSCDKTHTCPPCPAPELLGGPSVFLFPPKPKDTLMISRTPEVTCVVVDVSHEDPEVKFNWYVDGVEVHNAKTKPREEQYNSTYRVVSVLTVLHQDWLNGKEYKCKVSNKALPAPIEKTISKAKGQPREPQVYTLPPSRDELTKNQVSLTCLVKGFYPSDIAVEWESNGGCWGSRSQCGGGQPENNYKTTPPVLDSDGSFFLYSKLTVDKSRWQQGNVFSCSVMHEALHNHYTQKSLSLSPGK
notes: library L5 isolate
EC50 [1]: 250 nM

B4: variant Fc-fragment Fc-5-96 (other)
chain: EPKSCDKTHTCPPCPAPELLGGPSVFLFPPKPKDTLMISRTPEVTCVVVDVSHEDPEVKFNWYVDGVEVHNAKTKPREEQYNSTYRVVSVLTVLHQDWLNGKEYKCKVSNKALPAPIEKTISKAKGQPREPQVYTLPPSRDELTKNQVSLTCLVKGFYPSDIAVEWESNGGCMQMNKWCGGGQPENNYKTTPPVLDSDGSFFLYSKLTVDKSRWQQGNVFSCSVMHEALHNHYTQKSLSLSPGK
notes: soluble elsewhere
EC50 [1]: 76 nM | ELISA score [2]: 72.7 | ELISA score [3]: 0.5

B5: variant Fc-fragment Fc-5-92 (other)
chain: EPKSCDKTHTCPPCPAPELLGGPSVFLFPPKPKDTLMISRTPEVTCVVVDVSHEDPEVKFNWYVDGVEVHNAKTKPREEQYNSTYRVVSVLTVLHQDWLNGKEYKCKVSNKALPAPIEKTISKAKGQPREPQVYTLPPSRDELTKNQVSLTCLVKGFYPSDIAVEWESNGGCDGRTKYCGGGQPENNYKTTPPVLDSDGSFFLYSKLTVDKSRWQQGNVFSCSVMHEALHNHYTQKSLSLSPGK
notes: soluble elsewhere
EC50 [1]: 75 nM | ELISA score [2]: 64.1 | ELISA score [3]: 0.5

B6: variant Fc-fragment Fc-5-60 (other)
chain: EPKSCDKTHTCPPCPAPELLGGPSVFLFPPKPKDTLMISRTPEVTCVVVDVSHEDPEVKFNWYVDGVEVHNAKTKPREEQYNSTYRVVSVLTVLHQDWLNGKEYKCKVSNKALPAPIEKTISKAKGQPREPQVYTLPPSRDELTKNQVSLTCLVKGFYPSDIAVEWESNGGCQKGWVFCGGGQPENNYKTTPPVLDSDGSFFLYSKLTVDKSRWQQGNVFSCSVMHEALHNHYTQKSLSLSPGK
notes: library L5 isolate
EC50 [1]: 67 nM | EC50 (cynomolgus monkey FcRn): 60 nM

B7: variant Fc-fragment Fc-5-64 (other)
chain: EPKSCDKTHTCPPCPAPELLGGPSVFLFPPKPKDTLMISRTPEVTCVVVDVSHEDPEVKFNWYVDGVEVHNAKTKPREEQYNSTYRVVSVLTVLHQDWLNGKEYKCKVSNKALPAPIEKTISKAKGQPREPQVYTLPPSRDELTKNQVSLTCLVKGFYPSDIAVEWESNGGCHSFKHFCGGGQPENNYKTTPPVLDSDGSFFLYSKLTVDKSRWQQGNVFSCSVMHEALHNHYTQKSLSLSPGK
notes: soluble elsewhere
EC50 [1]: 210 nM | ELISA score [2]: 57.2 | ELISA score [3]: 0.4
